Positions count from the first letter of the chain named. Names may count otherwise. Values belong to the molecule of their own block, whether it stands above or below them.
Columns and labels:
[1] = target: BMP-9 dimer (disulfide-linked BMP-9 growth factor homodimer) (human) (UniProt Q9UK05)
[2] = target: BMP-9 monomer (cysteinylated BMP-9 growth factor) (human) (UniProt Q9UK05)
[3] = target: the molecule itself; assay: non-reducing SDS-PAGE after IMAC, with densitometry; His-tagged pro-proteins purified from expi293 conditioned medium by IMAC, run non-reduced and reduced; shows the disulfide-linked dimer beside the monomer; bands quantified with ImageJ
[4] = target: T1, Pro-(X)-BMP-10 S385G, R353K, O95393; assay: SDS-PAGE densitometry after IMAC purification; conditions: chain shown with the change
T1 chain: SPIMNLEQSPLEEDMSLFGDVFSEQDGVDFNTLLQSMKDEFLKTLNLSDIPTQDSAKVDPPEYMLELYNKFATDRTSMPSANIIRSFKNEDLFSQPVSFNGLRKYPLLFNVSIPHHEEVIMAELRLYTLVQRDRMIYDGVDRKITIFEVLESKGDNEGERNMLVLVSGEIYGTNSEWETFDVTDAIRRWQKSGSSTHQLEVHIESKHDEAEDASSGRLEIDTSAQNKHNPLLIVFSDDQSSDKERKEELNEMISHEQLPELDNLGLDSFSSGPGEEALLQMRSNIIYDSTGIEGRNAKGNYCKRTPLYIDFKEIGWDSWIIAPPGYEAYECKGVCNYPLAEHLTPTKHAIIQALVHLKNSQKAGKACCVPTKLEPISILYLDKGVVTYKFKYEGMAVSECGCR

[5] = target: T2, Pro-(X)-BMP-10 S385G, O95393; assay: SDS-PAGE densitometry after IMAC purification; conditions: chain shown with the change
T2 chain: T1 chain with K332R

[6] = target: T3, Pro-(X)-BMP-10 R353K, O95393; assay: SDS-PAGE densitometry after IMAC purification; conditions: chain shown with the change
T3 chain: T1 chain with G364S

[7] = target: the molecule itself; assay: crystal structure; purified BMP-9 dimers at acidic pH: wild type 0.3 M sodium citrate pH 3.5; mutants 0.1 M acetic acid pH 4
BMP-10 monomer (human) = BMP-10 monomer (human) (UniProt O95393)
BMP-10 dimer (human) = BMP-10 dimer (human) (UniProt O95393)
[8] = target: the molecule itself; assay: crystal structure; BMP-10 Crystal Chimera; 25% 1,2-propanediol, 100 mM phosphate pH 6.2, 10% glycerol

- EC50 of pSMAD1/5/9 (western blot) in serum-starved HUVECs, 45 minutes, dimers 0.001–1.62 ng/mL [1]: 3.3 pM
Molecule: BMP-9 dimer (disulfide-linked BMP-9 growth factor homodimer) (from UniProt Q9UK05 320-429) (ligand)

- EC50 of pSMAD1/5/9 (western blot) in serum-starved HUVECs, 45 minutes, monomers 0.01–54 ng/mL [2]: 124 pM
Molecule: BMP-9 monomer (cysteinylated BMP-9 growth factor) (from UniProt Q9UK05 320-429) (ligand)

B1: Pro-(fr)-Act-A (natural protein, human, UniProt P08476 27-426, looked up)
chain: EGHSAAPDCPSCALAALPKDVPNSQPEMVEAVKKHILNMLHLKKRPDVTQPVPKAALLNAIRKLHVGKVGENGYVEIEDDIGRRAEMNELMEQTSEIITFAESGTARKTLHFEISKEGSDLSVVERAEVWLFLKVPKANRTRTKVTIRLFQQQKHPQGSLDTGEEAEEVGLKGERSELLLSEKVVDARKSTWHVFPVSSSIQRLLDQGKSSLDVRIACEQCQESGASLVLLGKKKKKEEEGEGKKKGGGEGGAGADEEKEQSHRPFLMLQARQSEDHPHRRRRRGLECDGKVNICCKKQFFVSFKDIGWNDWIIAPSGYHANYCEGECPSHIAGTSGSSLSFHSTVINHYRMRGHSPFANLKSCCVPTKLRPMSMLYYDDGQNIIKKDIQNMIVEECGCS
notes: human proINHBA residues 27-426; The results call it N-terminally histidine-tagged and purified by that tag; the methods say 'with no tag or processing site'; Furin processing incomplete; also called Pro-Activin-A; Pro-Act-A; source: expi293 (suspension HEK293), secreted; purified from conditioned medium by the histidine tag; not shown: His tag, N-terminal, kept
- binding result [3]: binds

B2: Pro-(fr)-BMP-9 (natural protein, human, UniProt Q9UK05 23-429, looked up)
chain: KPLQSWGRGSAGGNAHSPLGVPGGGLPEHTFNLKMFLENVKVDFLRSLNLSGVPSQDKTRVEPPQYMIDLYNRYTSDKSTTPASNIVRSFSMEDAISITATEDFPFQKHILLFNISIPRHEQITRAELRLYVSCQNHVDPSHDLKGSVVIYDVLDGTDAWDSATETKTFLVSQDIQDEGWETLEVSSAVKRWVRSDSTKSKNKLEVTVESHRKGCDTLDISVPPGSRNLPFFVVFSNDHSSGTKETRLELREMISHEQESVLKKLSKDGSTEAGESSHEEDTDGHVAAGSTLARRKRSSGAGSHCQKTSLRVNFEDIGWDSWIIAPKEYEAYECKGGCFFPLADDVTPTKHAIVQTLVHLKFPTKVGKACCVPTKLSPISVLYKDDMGVPTLKYHYEGMSVAECGCR
notes: human proBMP9 residues 23-429 with the natural furin site; secreted partially processed; Partly cut by furin into prodomain and growth factor (12 and 24 kDa forms on the gel); also called Pro-BMP-9 with unmodified furin processing site; wild-type BMP-9; source: expi293 (suspension HEK293), secreted; purified by IMAC; not shown: 8xHis, N-terminal, kept
- binding result [3]: binds

B3: Pro-(X)-BMP-9 G389S, K357R (natural protein, human, UniProt Q9UK05 23-429, looked up)
chain: B2 chain with R294I, R295E, K296G, K335R, G367S
notes: also called G389S, K357R BMP-9; BMP-9 double mutant; source: expi293 (suspension HEK293), secreted; purified by IMAC; not shown: 8xHis, N-terminal, kept
- binding result [3]: binds

B4: Pro-(X)-BMP-9 (natural protein, human, UniProt Q9UK05 23-429, looked up)
chain: B2 chain with R294I, R295E, K296G
notes: human proBMP9 residues 23-429, furin site RRKR replaced by factor X site IEGR; Secreted unprocessed as a monomer-dimer mixture; also called Pro-BMP-9 with factor-X processing site; Pro-BMP-9 wild-type; source: expi293 (suspension HEK293), secreted; purified from conditioned medium by IMAC; not shown: 8xHis, N-terminal, kept
- binding result [3]: binds

B5: Pro-(X)-BMP-9 G389S (natural protein, human, UniProt Q9UK05 23-429, looked up)
chain: B2 chain with R294I, R295E, K296G, G367S
notes: also called G389S BMP-9; source: expi293 (suspension HEK293), secreted; purified by IMAC; not shown: 8xHis, N-terminal, kept
- binding result [3]: binds

B6: Pro-(X)-BMP-9 K357R (natural protein, human, UniProt Q9UK05 23-429, looked up)
chain: B2 chain with R294I, R295E, K296G, K335R
notes: also called K357R BMP-9; source: expi293 (suspension HEK293), secreted; purified by IMAC; not shown: 8xHis, N-terminal, kept
- binding result [3]: binds

- other: dimer over monomer ratio [4]: 0.41
B7: Pro-(X)-BMP-10, O95393 S385G; R353K (protein)
chain: T1 chain

- other: dimer over monomer ratio [5]: 0.42
B8: Pro-(X)-BMP-10, O95393 S385G (protein)
chain: T1 chain with K332R

B9: Pro-(fr)-BMP-10 (natural protein, human, UniProt O95393 22-424, looked up)
chain: T1 chain with G291A, I292R, E293I, G294R, K332R, G364S
notes: human proBMP10 residues 22-424 with the natural furin site; secreted partially processed; Partly cut by furin into prodomain and growth factor; also called Pro-BMP-10 with unmodified furin processing site; wild-type BMP-10; source: expi293 (suspension HEK293), secreted; purified by IMAC; not shown: 8xHis, N-terminal, kept
- binding result [3]: binds

- other: dimer over monomer ratio [6]: 0.9
B10: Pro-(X)-BMP-10, O95393 R353K (protein)
chain: T1 chain with G364S

B11: Pro-(fr)-TGF-β2 (natural protein, human, UniProt P61812-1 19-414, looked up)
chain: LSLSTSSTLDMDQFMRKRIEAIRGQILSKLKLTSPPEDYPEPEEVPPEVISIYNSTRDLLQEKASRRAAACERERSDEEYYAKEVYKIDMPPFFPSENAIPPTFYRPYFRIVRFDVSAMEKNASNLVKAEFRVFRLQNPKARVAEQRIELYQILKSKDLTSPTQRYIDSKVVKTRAEGEWLSFDVTDAVHEWLHHKDRNLGFKISLHCPCCTFVPSNNYIIPNKSEELEARFAGIDGTSTYTSGDQKTIKSTRKKNSGKTPHLLLMLLPSYRLESQQTNRRKKRALDAAYCFRNVQDNCCLRPLYIDFKRDLGWKWIHEPKGYNANFCAGACPYLWSSDTQHSRVLSLYNTINPEASASPCCVSQDLEPLTILYYIGKTPKIEQLSNMIVKSCKCS
notes: human proTGFβ2 residues 19-414; Behind the mouse Ig signal peptide and the His tag, no processing site after the tag; Furin processing incomplete; also called Pro-TGF-β2; source: expi293 (suspension HEK293), secreted; purified from conditioned medium by the histidine tag; not shown: 8xHis, N-terminal, kept
- binding result [3]: binds

B12: BMP-9 G389S dimer (ligand, human, UniProt Q9UK05 320-429, looked up)
chain: SSGAGSHCQKTSLRVNFEDIGWDSWIIAPKEYEAYECKGGCFFPLADDVTPTKHAIVQTLVHLKFPTKVSKACCVPTKLSPISVLYKDDMGVPTLKYHYEGMSVAECGCR
modifications: interchain disulfide at Cys-392
notes: human BMP-9 growth factor domain from a mutant of Pro-(X)-BMP-9 (proBMP9 residues 23-429, A321S, RRKR replaced by IEGR); numbers count on the precursor; Rows of m3 with m3 mean the two chains of the dimer; source: expi293 (suspension HEK293), mutant of Pro-(X)-BMP-9; purified dimer
- binding result [7]: binds

B13: BMP-9 G389S, K357R dimer (ligand, human, UniProt Q9UK05 320-429, looked up)
chain: B12 chain with K38R
modifications: interchain disulfide at Cys-392
notes: human BMP-9 growth factor domain from a mutant of Pro-(X)-BMP-9 (proBMP9 residues 23-429, A321S, RRKR replaced by IEGR); numbers count on the precursor; Rows of m4 with m4 mean the two chains of the dimer; also called BMP-9 double-mutant; source: expi293 (suspension HEK293), mutant of Pro-(X)-BMP-9; purified dimer
- binding result [7]: binds

- EC50 of pSMAD1/5/9 (western blot) in serum-starved HUVECs, 45 minutes, monomers 0.01–54 ng/mL (BMP-10 monomer (human)): 164 pM
B14: BMP-10 monomer (ligand)
chain: NAKGNYCKRTPLYIDFKEIGWDSWIIAPPGYEAYECRGVCNYPLAEHLTPTKHAIIQALVHLKNSQKASKACCVPTKLEPISILYLDKGVVTYKFKYEGMAVSECGCR
modifications: cysteinylated (+119 Da); the paper takes the site to be the interchain cysteine

- EC50 of pSMAD1/5/9 (western blot) in serum-starved HUVECs, 45 minutes, dimers 0.001–1.62 ng/mL (BMP-10 dimer (human)): 5.9 pM
B15: BMP-10 dimer (ligand)
chain: B14 chain
modifications: interchain disulfide

B16: BMP-10 Crystal Chimera (growth factor from Pro9-(X)-BMP-10 Crystal Chimera) (ligand, human)
chain: DDGNYCKRTPLYIDFKEIGWDSWIIAPPGYEAYECRGVCFFPLAEHLTPTKHAIIQTLVHLKNSQKASKACCVPTKLEPISILYLDKGVVTLKYKYEGMAVSECGCR
notes: human proBMP10 residues 320-424 with five residues replaced by BMP-9 crystal contacts; numbers count on the precursor; Expressed behind the BMP-9 prodomain (proBMP9 residues 23-315); also called chimeric BMP-10; source: expi293 (suspension HEK293), expressed as Pro9-(X)-BMP-10 Crystal Chimera; purified
- binding result [8]: binds
